Broadly, the EC50 is the midpoint of the concentration-response curve. High values mean lower potency in that assay, low ones higher potency in that assay.

The results in this text go back to patent US20190276511A1 (BIONTECH RNA PHARMACEUTICALS, published 2019).

Assay [1] has as its target T1, CD27-Fc (human, UniProt P26842 20-191).
T1 construct: extracellular domain; hinge included for covalent assembly; also called CD27 receptor-Fc fusion protein; not shown: human Fc gamma 1 region including the hinge region
T1 sequence (looked up): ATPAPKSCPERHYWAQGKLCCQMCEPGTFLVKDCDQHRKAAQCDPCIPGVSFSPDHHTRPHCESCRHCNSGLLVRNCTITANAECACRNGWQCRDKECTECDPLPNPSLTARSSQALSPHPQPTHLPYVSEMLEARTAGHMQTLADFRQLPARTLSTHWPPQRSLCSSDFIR
Briefly: ELISA, coated receptor-Fc.

The target in a further assay is T2, 4-1BB-Fc (human, UniProt Q07011 24-186).
T2 construct: extracellular domain; hinge included for covalent assembly; also called 4-1BB receptor-Fc fusion protein; not shown: human Fc gamma 1 region including the hinge region
Briefly: ELISA, coated receptor-Fc. In general terms: In an ELISA, binding on a coated surface is turned into a signal by an enzyme label.

The target in another assay is 4-1BB receptor on cells (human, UniProt Q07011 24-255). Briefly: cell-based or functional assay.
Chain of 4-1BB receptor on cells (Q07011 24-255): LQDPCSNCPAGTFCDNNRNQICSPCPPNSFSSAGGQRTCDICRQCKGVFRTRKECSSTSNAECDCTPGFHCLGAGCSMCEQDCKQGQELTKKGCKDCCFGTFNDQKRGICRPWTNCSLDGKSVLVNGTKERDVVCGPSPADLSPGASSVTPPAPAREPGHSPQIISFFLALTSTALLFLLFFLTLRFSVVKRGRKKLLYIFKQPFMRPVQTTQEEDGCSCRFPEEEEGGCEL
The target of assay [2] is T3, CD40-Fc (human, UniProt P25942 21-193).
T3 construct: extracellular domain; hinge included for covalent assembly; also called CD40 receptor-Fc fusion protein; not shown: human Fc gamma 1 region including the hinge region
T3 sequence (P25942 21-193 limits assumed): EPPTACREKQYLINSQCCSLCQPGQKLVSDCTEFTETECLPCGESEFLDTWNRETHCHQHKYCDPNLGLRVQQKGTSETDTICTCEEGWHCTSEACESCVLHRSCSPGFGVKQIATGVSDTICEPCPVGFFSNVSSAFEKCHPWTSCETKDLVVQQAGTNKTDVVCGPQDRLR
Description: ELISA, coated receptor-Fc.

Assay [3] addresses T4, OX40-Fc (human, UniProt P43489 29-214).
T4 construct: extracellular domain; hinge included for covalent assembly; also called OX40 receptor-Fc fusion protein; not shown: human Fc gamma 1 region including the hinge region
T4 sequence (looked up): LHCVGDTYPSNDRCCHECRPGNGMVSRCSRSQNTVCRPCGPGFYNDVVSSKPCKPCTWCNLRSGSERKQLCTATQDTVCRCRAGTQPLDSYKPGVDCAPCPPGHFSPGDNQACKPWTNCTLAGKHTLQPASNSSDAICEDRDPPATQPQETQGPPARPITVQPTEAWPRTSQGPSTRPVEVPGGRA
Briefly: ELISA, coated receptor-Fc.

Assay [4] has as its target T4, OX40-Fc. Briefly: ELISA, coated receptor-Fc. The source holds these as a separate data set.
Another assay addresses T5, OX40 receptor on cells (human, UniProt P43489 29-277).
T5 sequence (looked up): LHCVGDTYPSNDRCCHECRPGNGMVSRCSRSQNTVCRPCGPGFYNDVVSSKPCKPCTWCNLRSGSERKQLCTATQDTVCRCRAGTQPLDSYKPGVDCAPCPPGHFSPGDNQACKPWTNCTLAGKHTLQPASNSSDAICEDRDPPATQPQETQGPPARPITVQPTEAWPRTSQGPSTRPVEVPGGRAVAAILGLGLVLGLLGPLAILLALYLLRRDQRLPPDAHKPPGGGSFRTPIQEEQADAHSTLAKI
Description: cell-based or functional assay.

For assay [5], the target named is T1, CD27-Fc. Description: ELISA, coated receptor-Fc. The source holds these as a separate data set.
The target of assay [6] is T3, CD40-Fc. Description: ELISA, coated receptor-Fc. This is another data set of the same source.
The next assay deals with CD40 receptor on cells (human, UniProt P25942 21-277). Description: cell-based or functional assay.
Chain of CD40 receptor on cells (P25942 21-277): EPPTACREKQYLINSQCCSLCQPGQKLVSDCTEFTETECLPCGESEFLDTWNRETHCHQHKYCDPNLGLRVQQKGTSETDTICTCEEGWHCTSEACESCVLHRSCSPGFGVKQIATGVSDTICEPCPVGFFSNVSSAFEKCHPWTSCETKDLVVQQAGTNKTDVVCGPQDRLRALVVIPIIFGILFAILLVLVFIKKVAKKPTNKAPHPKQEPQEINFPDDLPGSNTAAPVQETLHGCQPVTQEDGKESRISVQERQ

B1: scCD27L-sc4-1BBL (ligand)
chain: SLGWDVAELQLNHTGPQQDPRLYWQGGPALGRSFLHGPELDKGQLRIHRDGIYMVHIQVTLAICSSTTASRHHPTTLAVGICSPASRSISLLRLSFHQGCTIASQRLTPLARGDTLCTNLTGTLLPSRNTDETFFGVQWVRPGGGSGGGSLGWDVAELQLNHTGPQQDPRLYWQGGPALGRSFLHGPELDKGQLRIHRDGIYMVHIQVTLAICSSTTASRHHPTTLAVGICSPASRSISLLRLSFHQGCTIASQRLTPLARGDTLCTNLTGTLLPSRNTDETFFGVQWVRPGGGSGGGSLGWDVAELQLNHTGPQQDPRLYWQGGPALGRSFLHGPELDKGQLRIHRDGIYMVHIQVTLAICSSTTASRHHPTTLAVGICSPASRSISLLRLSFHQGCTIASQRLTPLARGDTLCTNLTGTLLPSRNTDETFFGVQWVRPGGGGSGGGTGGGGSREGPELSPDDPAGLLDLRQGMFAQLVAQNVLLIDGPLSWYSDPGLAGVSLTGGLSYKEDTKELVVAKAGVYYVFFQLELRRVVAGEGSGSVSLALHLQPLRSAAGAAALALTVDLPPASSEARNSAFGFQGRLLHLSAGQRLGVHLHTEARARHAWQLTQGATVLGLFRVTPEIPAGLPSPRSEGGGGSGGGGSGGGGSREGPELSPDDPAGLLDLRQGMFAQLVAQNVLLIDGPLSWYSDPGLAGVSLTGGLSYKEDTKELVVAKAGVYYVFFQLELRRVVAGEGSGSVSLALHLQPLRSAAGAAALALTVDLPPASSEARNSAFGFQGRLLHLSAGQRLGVHLHTEARARHAWQLTQGATVLGLFRVTPEIPAGLPSPRSEGGGGSGGGGSGGGGSREGPELSPDDPAGLLDLRQGMFAQLVAQNVLLIDGPLSWYSDPGLAGVSLTGGLSYKEDTKELVVAKAGVYYVFFQLELRRVVAGEGSGSVSLALHLQPLRSAAGAAALALTVDLPPASSEARNSAFGFQGRLLHLSAGQRLGVHLHTEARARHAWQLTQGATVLGLFRVTPEIPAGLPSPRSE
notes: scDuokine from HEK293; VH leader left out; also called single-chain Duokine scCD27L-sc4-1BBL; not shown: N-terminal FLAG tag
For the molecule B1, the EC50 in the assay with CD27-Fc [1] was 9.23 nM; in the assay with 4-1BB-Fc, 4.57 nM. Also, in the assay with 4-1BB receptor on cells, the “Receptor activation (EC50, nM)” value is 1.5 nM. Moreover, the binding result in the assay with CD40-Fc [2] and with OX40-Fc [3] was “no binding (tested: 100 nM (FIG. 10))” throughout.

B2: scOX40L-sc4-1BBL (ligand)
chain: QVSHRYPRIQSIKVQFTEYKKEKGFILTSQKEDEIMKVQNNSVIINCDGFYLISLKGYFSQEVNISLHYQKDEEPLFQLKKVRSVNSLMVASLTYKDKVYLNVTTDNTSLDDFHVNGGELILIHQNPGEFCVLGGGSGGGQVSHRYPRIQSIKVQFTEYKKEKGFILTSQKEDEIMKVQNNSVIINCDGFYLISLKGYFSQEVNISLHYQKDEEPLFQLKKVRSVNSLMVASLTYKDKVYLNVTTDNTSLDDFHVNGGELILIHQNPGEFCVLGGGSGGGQVSHRYPRIQSIKVQFTEYKKEKGFILTSQKEDEIMKVQNNSVIINCDGFYLISLKGYFSQEVNISLHYQKDEEPLFQLKKVRSVNSLMVASLTYKDKVYLNVTTDNTSLDDFHVNGGELILIHQNPGEFCVLGGGGSGGGTGGGGSREGPELSPDDPAGLLDLRQGMFAQLVAQNVLLIDGPLSWYSDPGLAGVSLTGGLSYKEDTKELVVAKAGVYYVFFQLELRRVVAGEGSGSVSLALHLQPLRSAAGAAALALTVDLPPASSEARNSAFGFQGRLLHLSAGQRLGVHLHTEARARHAWQLTQGATVLGLFRVTPEIPAGLPSPRSEGGGGSGGGGSGGGGSREGPELSPDDPAGLLDLRQGMFAQLVAQNVLLIDGPLSWYSDPGLAGVSLTGGLSYKEDTKELVVAKAGVYYVFFQLELRRVVAGEGSGSVSLALHLQPLRSAAGAAALALTVDLPPASSEARNSAFGFQGRLLHLSAGQRLGVHLHTEARARHAWQLTQGATVLGLFRVTPEIPAGLPSPRSEGGGGSGGGGSGGGGSREGPELSPDDPAGLLDLRQGMFAQLVAQNVLLIDGPLSWYSDPGLAGVSLTGGLSYKEDTKELVVAKAGVYYVFFQLELRRVVAGEGSGSVSLALHLQPLRSAAGAAALALTVDLPPASSEARNSAFGFQGRLLHLSAGQRLGVHLHTEARARHAWQLTQGATVLGLFRVTPEIPAGLPSPRSE
notes: scDuokine from HEK293; VH leader left out; also called single-chain Duokine scOX40L-sc4-1BBL; not shown: N-terminal FLAG tag
In the case of B2, the EC50 in the assay with 4-1BB-Fc worked out at 4.61 nM; in the assay with OX40-Fc [4], 347 nM. Also, the “Receptor activation (EC50, nM)” value with 4-1BB receptor on cells amounted to 2.83 nM; with OX40 receptor on cells it was 0.56 nM. For the same molecule, the binding result with CD40-Fc [2] and with CD27-Fc [5] was “no binding (tested: 100 nM (FIG. 10))” in each case.

B3: scCD40L-sc4-1BBL (ligand)
chain: GDQNPQIAAHVISEASSKTTSVLQWAEKGYYTMSNNLVTLENGKQLTVKRQGLYYIYAQVTFCSNREASSQAPFIASLCLKSPGRFERILLRAANTHSSAKPCGQQSIHLGGVFELQPGASVFVNVTDPSQVSHGTGFTSFGLLKLGGGSGGGGDQNPQIAAHVISEASSKTTSVLQWAEKGYYTMSNNLVTLENGKQLTVKRQGLYYIYAQVTFCSNREASSQAPFIASLCLKSPGRFERILLRAANTHSSAKPCGQQSIHLGGVFELQPGASVFVNVTDPSQVSHGTGFTSFGLLKLGGGSGGGGDQNPQIAAHVISEASSKTTSVLQWAEKGYYTMSNNLVTLENGKQLTVKRQGLYYIYAQVTFCSNREASSQAPFIASLCLKSPGRFERILLRAANTHSSAKPCGQQSIHLGGVFELQPGASVFVNVTDPSQVSHGTGFTSFGLLKLGGGGSGGGTGGGGSREGPELSPDDPAGLLDLRQGMFAQLVAQNVLLIDGPLSWYSDPGLAGVSLTGGLSYKEDTKELVVAKAGVYYVFFQLELRRVVAGEGSGSVSLALHLQPLRSAAGAAALALTVDLPPASSEARNSAFGFQGRLLHLSAGQRLGVHLHTEARARHAWQLTQGATVLGLFRVTPEIPAGLPSPRSEGGGGSGGGGSGGGGSREGPELSPDDPAGLLDLRQGMFAQLVAQNVLLIDGPLSWYSDPGLAGVSLTGGLSYKEDTKELVVAKAGVYYVFFQLELRRVVAGEGSGSVSLALHLQPLRSAAGAAALALTVDLPPASSEARNSAFGFQGRLLHLSAGQRLGVHLHTEARARHAWQLTQGATVLGLFRVTPEIPAGLPSPRSEGGGGSGGGGSGGGGSREGPELSPDDPAGLLDLRQGMFAQLVAQNVLLIDGPLSWYSDPGLAGVSLTGGLSYKEDTKELVVAKAGVYYVFFQLELRRVVAGEGSGSVSLALHLQPLRSAAGAAALALTVDLPPASSEARNSAFGFQGRLLHLSAGQRLGVHLHTEARARHAWQLTQGATVLGLFRVTPEIPAGLPSPRSE
notes: scDuokine from HEK293; VH leader left out; also called single-chain Duokine scCD40L-sc4-1BBL; not shown: N-terminal FLAG tag
With B3, the figures for the EC50 with CD40-Fc [6] and with 4-1BB-Fc were 7.02 nM and 3.17 nM, respectively. Besides, the “Receptor activation (EC50, nM)” value was 0.26 nM in the assay with 4-1BB receptor on cells and 5.23 nM in the assay with CD40 receptor on cells. Also, the binding result with CD27-Fc [5] and in the assay with OX40-Fc [3] was “no binding (tested: 100 nM (FIG. 10))” in each case.
